B1: Fab HM14c10 (Fab, V domains shown)
VH: EVQLVESGGGVVQPGRSLRLSCAASGFSFSSYGMHWVRQAPGKGLEWVAVIWYDGSKTYYGDSVKGRFTISKDNSKKMVNLQMDSLGVEDTAFYYCARGIAGGWAFWGIDLWGQGTLVTVSS
VL: DVVMTQSPGTLSLSPGERATLSCRASQNVYSYLGWYQHKPGRSPRLLIFGVTSRATGVPDRFSGSGSGTDFTLTISRLEPEDFAVYYCQQYAGSAYTFGQGTKVEIKR
notes: also called HM14c10Fab; Fab 14c10
B2: HM14c10 (recombinant human IgG1 antibody 14c10, clone 8) (antibody, V domains shown)
VH: EVQLVESGGGVVQPGRSLRLSCAASGFSFSSYGMHWVRQAPGKGLEWVAVIWYDGSKTYYGDSVKGRFTISKDNSKKMVNLQMDSLGVEDTAFYYCARGIAGGWAFWGIDLWGQGTLVTVSS
VL: DVVMTQSPGTLSLSPGERATLSCRASQNVYSYLGWYQHKPGRSPRLLIFGVTSRATGVPDRFSGSGSGTDFTLTISRLEPEDFAVYYCQQYAGSAYTFGQGTKVEIKR
notes: also called 14c10.8; recombinant IgG1 14c10 antibody

What was measured:
[1] = biological target: T1, Dengue virus serotype 1 strain PVP 159 (DENV1/SG/07K3640DK1/2008) E protein, on whole virus (Dengue virus serotype 1, UniProt P27909 281-676)
T1 construct: also called DENV1 E protein

[2] = biological target: T2, Dengue virus serotype 2 (DENV2) E protein, on whole virus (Dengue virus serotype 2, UniProt P29990 281-775); experiment: sandwich ELISA on live whole virus
T2 construct: mature; also called Dengue serotype 2

[3] = biological target: T3, Dengue virus serotype 3 (DENV3) E protein, on whole virus (Dengue virus serotype 3, UniProt P27915 281-773); experiment: sandwich ELISA on live whole virus
T3 construct: mature; also called Dengue serotype 3

[4] = biological target: T4, Dengue virus serotype 4 (DENV4) E protein, on whole virus (Dengue virus serotype 4, UniProt P09866 280-774); experiment: sandwich ELISA on live whole virus
T4 construct: mature; also called Dengue serotype 4

Row | Binder | binding result [1] | binding result [2] | binding result [3] | binding result [4]
1 | B1 | binds |  |  | 
2 | B2 |  | no binding | no binding | no binding

— US9376486 (NATIONAL UNIVERSITY OF SINGAPORE, dated 2016)
